Test results published in PMC8152475 (Biomedicines, 2021).

T1: TBK1 (Homo sapiens, UniProt Q9UHD2)
T1 sequence (Q9UHD2 1-729): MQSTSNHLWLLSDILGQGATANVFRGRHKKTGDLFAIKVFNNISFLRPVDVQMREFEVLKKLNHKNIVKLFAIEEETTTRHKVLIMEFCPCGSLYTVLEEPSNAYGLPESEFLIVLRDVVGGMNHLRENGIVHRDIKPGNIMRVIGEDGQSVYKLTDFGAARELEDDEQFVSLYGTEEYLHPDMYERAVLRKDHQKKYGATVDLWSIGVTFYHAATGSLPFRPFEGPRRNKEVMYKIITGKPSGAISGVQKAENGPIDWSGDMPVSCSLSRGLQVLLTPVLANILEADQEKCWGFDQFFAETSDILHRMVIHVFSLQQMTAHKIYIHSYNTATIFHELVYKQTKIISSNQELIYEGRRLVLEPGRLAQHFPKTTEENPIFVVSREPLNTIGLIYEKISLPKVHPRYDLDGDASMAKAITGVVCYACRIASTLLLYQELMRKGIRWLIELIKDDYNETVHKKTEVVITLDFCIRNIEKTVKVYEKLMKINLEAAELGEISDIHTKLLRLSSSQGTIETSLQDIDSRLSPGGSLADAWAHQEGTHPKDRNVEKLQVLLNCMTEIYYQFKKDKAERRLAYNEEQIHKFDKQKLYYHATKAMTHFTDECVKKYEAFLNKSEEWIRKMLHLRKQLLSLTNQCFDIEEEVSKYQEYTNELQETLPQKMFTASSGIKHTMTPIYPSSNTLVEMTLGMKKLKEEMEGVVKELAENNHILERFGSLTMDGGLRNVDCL

B1: MPT63: secretory immunodominant antigen of MTB (protein)
chain: AYPITGKLGSELTMTDTVGQVVLGWKVSDLKSSTAVIPGYPVAGQVWEATATVNAIRGSVTPAVSQFNARTADGINYRVLWQAAGPDTISGATIPQGEQSTGKIYFDVTGPSPTIVAMNNGMEDLLIWEP
B2: MPT64: secretory immunodominant antigen of MTB, located in the RD2 region (protein)
chain: APKTYCEELKGTDTGQACQIQMSDPAYNINISLPSYYPDQKSLENYIAQTRDKFLSAATSSTPREAPYELNITSATYQSAIPPRGTQAVVLKVYQNAGGTHPTTTYKAFDWDQAYRKPITYDTLWQADTDPLPVVFPIVQGELSKQTGQQVSIAPNAGLDPVNYQNFAVTNDGVIFFFNPGELLPEAAGPTQVLVPRSAIDSMLA

How the values were obtained:
TBK1 = molecular target: T1, TBK1; assay type: binding
p47phox = assay type: binding

Molecule | domain of TBK1 required for binding (TBK1) | domain of p47phox required for binding (p47phox)
B1 | the kinase domain in TBK1 was essential to bind MPT63 | the PX domain in p47phox was important for the interaction with MPT63
B2 | The kinase domain (1–301) in TBK1 and HK2 domain in HK2 were found to be essential for their interaction with MPT64 | –
